Data: the supplement of paper PMC10724198
± gives the standard deviation of the averaged measurements.

System: Saccharomyces cerevisiae
Assay: protein stability index of tFT-peptide fusion (C-terminal peptide) (PSI (0-1 scale)); higher = more stable (slower turnover)
Details: temperature: 30 C
Description: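 MPS profiling in S. cerevisiae of the yeast C-terminome library: the last 12 aa of each annotated ORF are fused to the C-terminus of a sfGFP-mCherry timer, after a GGGS linker. Cells are FACS-sorted into 8 mCherry/sfGFP bins and deep-sequenced. PSI runs from 0 (unstable) to 1 (stable); wild type and das1Δ backgrounds, two technical replicates each.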

[1] = genetic background: das1 deletion

Row | Sequence | protein stability index [1] | protein stability index (genetic background: wild type)
1 | PDMIEELDLHED [GPD1 C-terminal 12 aa] | 0.716 ± 0.031 | 0.749 ± 0.1
2 | CDSEMFASSKDE [ERI1 C-terminal 12 aa] | 0.698 ± 0.0072 | 0.74 ± 0.053
3 | YKASGSYLEKYF [YPK3 C-terminal 12 aa] | 0.7123 ± 0.0023 | 0.6863 ± 0.00092
4 | IFHELKRQNSKN [RGD2 C-terminal 12 aa] | 0.739 ± 0.035 | 0.717 ± 0.052
5 | LCQHYIGWCPFW [TOR1 C-terminal 12 aa] | 0.7144 ± 0.0024 | 0.687 ± 0.011
6 | KSASSSPAPKDT [TRM10 C-terminal 12 aa] | 0.693 ± 0.013 | 0.708 ± 0.011
7 | SSYNSNVGHIKN [WHI3 C-terminal 12 aa] | 0.705 ± 0.019 | 0.736 ± 0.0042
8 | IPLVISYCISEE [ATX2 C-terminal 12 aa] | 0.575 ± 0.013 | 0.596 ± 0.024
9 | ASKESSKEDVAN [MUM2 C-terminal 12 aa] | 0.69 ± 0.0096 | 0.661 ± 0.032
10 | DEEREDDNYVPQ [CBC2 C-terminal 12 aa] | 0.689 ± 0.028 | 0.671 ± 0.022
11 | QVVAIIKKAYEY [ADH4 C-terminal 12 aa] | 0.707 ± 0.0071 | 0.679 ± 0.015
12 | LSQRVKKEYAAN [COQ21 C-terminal 12 aa] | 0.708 ± 0.024 | 0.685 ± 0.0074
13 | EGEHEQVLENFQ [GUT1 C-terminal 12 aa] | 0.702 ± 0.014 | 0.676 ± 0.032
14 | GPDAPLSKMKYE [SCS7 C-terminal 12 aa] | 0.684 ± 0.0086 | 0.704 ± 0.0071
15 | EADMKTKLDISD [NBP2 C-terminal 12 aa] | 0.695 ± 0.015 | 0.696 ± 0.023
16 | HGNWSRVVTDLN [BAT2 C-terminal 12 aa] | 0.6869 ± 0.0056 | 0.722 ± 0.1
17 | PEYDQVKQNNKE [YLR041W C-terminal 12 aa] | 0.691 ± 0.023 | 0.676 ± 0.03
18 | NLLLSGSLYQKN [BUD28 C-terminal 12 aa] | 0.751 ± 0.011 | 0.672 ± 0.036
19 | LVSYFLKVQMNL [YNL095C C-terminal 12 aa] | 0.514 ± 0.02 | 0.491 ± 0.011
20 | KTFSYKRPSTFY [RPL20A C-terminal 12 aa] | 0.6745 ± 0.0049 | 0.732 ± 0.039
21 | EKKRVLNAVCGL [YLR412C-A C-terminal 12 aa] | 0.69 ± 0.016 | 0.658 ± 0.021

Row | Sequence | protein stability index [1] | protein stability index (genetic background: wild type)
22 | RYAKIHEKHVSA [ASN2 C-terminal 12 aa] | 0.7157 ± 0.0026 | 0.7183 ± 0.0066
23 | RQEYKFKKSLLT [YKL131W C-terminal 12 aa] | 0.679 ± 0.018 | 0.625 ± 0.012
24 | QEGTFKRLALPA [THI11 C-terminal 12 aa] | 0.639 ± 0.013 | 0.65426 ± 7.7e-05
25 | TVGTGLITRIIE [TUF1 C-terminal 12 aa] | 0.694 ± 0.032 | 0.6945 ± 0.0066
26 | RVVDLIEYVAKA [TDH1 C-terminal 12 aa] | 0.6636 ± 0.0045 | 0.703 ± 0.055
27 | EQLEQDDGRKGG [LSM12 C-terminal 12 aa] | 0.682 ± 0.024 | 0.669 ± 0.023
28 | RRPAVIKALRGE [URE2 C-terminal 12 aa] | 0.6904 ± 0.00095 | 0.693 ± 0.023
29 | IYENDPNTKKNN [ERG3 C-terminal 12 aa] | 0.736 ± 0.022 | 0.72 ± 0.049
30 | GLKQKSTIVTVD [CDC5 C-terminal 12 aa] | 0.6917 ± 0.0015 | 0.717 ± 0.078
31 | GDYTVKQPEATK [AIM9 C-terminal 12 aa] | 0.703 ± 0.013 | 0.672 ± 0.029
32 | KHASELSSNSKF [CTA1 C-terminal 12 aa] | 0.702 ± 0.029 | 0.681 ± 0.048
33 | TDGPNEKWLPDY [SKS1 C-terminal 12 aa] | 0.7099 ± 0.0056 | 0.712 ± 0.046
34 | ECYLITILWLHK [TDA2 C-terminal 12 aa] | 0.256 ± 0.031 | 0.289 ± 0.0072
35 | SEPVKQVLDSKE [NMA2 C-terminal 12 aa] | 0.749 ± 0.039 | 0.728 ± 0.078
36 | STIQTTSVDPTT [BSC1 C-terminal 12 aa] | 0.7104 ± 0.0039 | 0.682 ± 0.036
37 | ETIAEEMDSVHT [YAL064W-B C-terminal 12 aa] | 0.682 ± 0.012 | 0.662 ± 0.018
38 | IQVVKSKVLNIE [YDR248C C-terminal 12 aa] | 0.691 ± 0.028 | 0.653 ± 0.016
39 | TKDGEVVKESKK [PET117 C-terminal 12 aa] | 0.677 ± 0.034 | 0.676 ± 0.027
40 | KPPKNKYKVVRR [SEC65 C-terminal 12 aa] | 0.714 ± 0.03 | 0.681 ± 0.0014
41 | NQVKLNQLLVGN [CSE1 C-terminal 12 aa] | 0.627 ± 0.038 | 0.641 ± 0.0068
42 | GQLLSGSCLLNM [YBR226C C-terminal 12 aa] | 0.686 ± 0.013 | 0.679 ± 0.053

Row | Sequence | protein stability index [1] | protein stability index (genetic background: wild type)
43 | DCGWVSDAYKNH [LCL2 C-terminal 12 aa] | 0.735 ± 0.019 | 0.724 ± 0.043
44 | SQGNVYLPGVAW [NOC4 C-terminal 12 aa] | 0.707 ± 0.009 | 0.738 ± 0.081
45 | KTDPNEPANDYR [DLD1 C-terminal 12 aa] | 0.6799 ± 0.00072 | 0.686 ± 0.032
46 | LELEFNSHFELK [HNT3 C-terminal 12 aa] | 0.69 ± 0.008 | 0.7 ± 0.041
47 | NVGNNEETLDDH [RAD34 C-terminal 12 aa] | 0.726 ± 0.047 | 0.701 ± 0.067
48 | QEKEHKKHTVAR [CAJ1 C-terminal 12 aa] | 0.694 ± 0.011 | 0.672 ± 0.014
49 | YFLAERERINNH [PEX4 C-terminal 12 aa] | 0.721 ± 0.0079 | 0.694 ± 0.01
50 | LLERLSILDRLD [APS2 C-terminal 12 aa] | 0.669 ± 0.019 | 0.69 ± 0.013
51 | TAAQMLEVQNEA [ARI1 C-terminal 12 aa] | 0.6837 ± 0.0021 | 0.7016 ± 0.0034
52 | ENVDSPRKSNQL [SLM2 C-terminal 12 aa] | 0.69 ± 0.018 | 0.678 ± 0.014
53 | KGLFWDPACVIA [MFA2 C-terminal 12 aa] | 0.731 ± 0.022 | 0.728 ± 0.029
54 | DNLKYSLDCDFS [BGL2 C-terminal 12 aa] | 0.709 ± 0.023 | 0.666 ± 0.0075
55 | YSLYRSRSKEAF [SAP190 C-terminal 12 aa] | 0.714 ± 0.048 | 0.692 ± 0.0071
56 | GTQVMYISEQKI [LSM6 C-terminal 12 aa] | 0.698 ± 0.0048 | 0.713 ± 0.016
57 | DFLTLVQTNSDT [YPL250W-A C-terminal 12 aa] | 0.712 ± 0.0071 | 0.722 ± 0.038
58 | WYNPSNQTYKSK [YLR222C-A C-terminal 12 aa] | 0.719 ± 0.038 | 0.727 ± 0.071
59 | SLSSRGKIFSST [EFR3 C-terminal 12 aa] | 0.698 ± 0.01 | 0.657 ± 0.011
60 | KILVFDKNLMNR [YLR154W-E C-terminal 12 aa] | 0.699 ± 0.0098 | 0.688 ± 0.019
61 | RRSKKWYSFIFN [SCO2 C-terminal 12 aa] | 0.75 ± 0.018 | 0.731 ± 0.098
62 | IASKNNWLPLQW [SIW14 C-terminal 12 aa] | 0.73114 ± 0.00013 | 0.732 ± 0.045
63 | SQAIPKKKKVLE [MEK1 C-terminal 12 aa] | 0.6937 ± 0.0011 | 0.6887 ± 0.0063

Row | Sequence | protein stability index [1] | protein stability index (genetic background: wild type)
64 | PIKGGDKASSEL [ATG5 C-terminal 12 aa] | 0.679 ± 0.0085 | 0.6877 ± 0.0045
65 | VSKELRSRDLLD [RPE1 C-terminal 12 aa] | 0.68 ± 0.027 | 0.699 ± 0.0075
66 | YWALGVALTGSK [YDR417C C-terminal 12 aa] | 0.6933 ± 0.0046 | 0.693 ± 0.029
67 | AILREVQFEVFR [NTA1 C-terminal 12 aa] | 0.699 ± 0.019 | 0.7068 ± 0.00076
68 | FAFVVVKQEFIH [BYE1 C-terminal 12 aa] | 0.521 ± 0.015 | 0.519 ± 0.0072
69 | NVEDEYSYSLTL [VPS68 C-terminal 12 aa] | 0.701 ± 0.0071 | 0.706 ± 0.066
70 | VTSKSALESIFP [YGP1 C-terminal 12 aa] | 0.73 ± 0.0083 | 0.678 ± 0.031
71 | GKNQWFFSKLRF [RPL27A C-terminal 12 aa] | 0.707 ± 0.0096 | 0.683 ± 0.013
72 | VDGFNDALQLSK [HEM14 C-terminal 12 aa] | 0.685 ± 0.022 | 0.708 ± 0.026
73 | LDLWRDFLNQAN [IDS2 C-terminal 12 aa] | 0.742 ± 0.015 | 0.629 ± 0.029
74 | LDGSREVGAAKS [UME1 C-terminal 12 aa] | 0.682 ± 0.026 | 0.7109 ± 0.0018
75 | QDKRSSQAIDVL [MMS21 C-terminal 12 aa] | 0.688 ± 0.015 | 0.6684 ± 0.0019
76 | ALDAELDAYMKG [YRA2 C-terminal 12 aa] | 0.67911 ± 5.2e-05 | 0.7 ± 0.0058
77 | MAHRIKNFRDEL [SIL1 C-terminal 12 aa] | 0.712 ± 0.0079 | 0.672 ± 0.032
78 | MDLKRFKGEFSF [PEX5 C-terminal 12 aa] | 0.69824 ± 0.00026 | 0.685 ± 0.036
79 | SIICIETNKAIR [HPM1 C-terminal 12 aa] | 0.705 ± 0.016 | 0.757 ± 0.099
80 | TGMGAAAIFIKE [POT1 C-terminal 12 aa] | 0.688 ± 0.04 | 0.752 ± 0.049
81 | AAMLTSENAREI [RRP45 C-terminal 12 aa] | 0.707 ± 0.01 | 0.676 ± 0.035
82 | SSSSNFLEESSS [YER148W-A C-terminal 12 aa] | 0.7024 ± 0.00079 | 0.6861 ± 0.006
